Experimental data published in the DeepSol protein solubility set.

assay: soluble on expression in E. coli; label from the status in PepcDB or PDB records

Row | Sequence | soluble on expression in E. coli
1 | MTTMRTGSQIFMRSGQWNELWKEKNVPLRFTNPNISFDGSERTKAEIEVVDSQEKSLVTRNMQIIPWQHDIANLHLPERDSLILMPCATRTVGRRLTARNIGLADTRGNCDISWPGVMIKIYGQQAVTSARSHQKTAVLFSVRRAQVAAMILTYPWLLSEPVRVIARYSGVSVGTVSNALKIFQKAGYLAETMDGHRLVNAELFLSAWARAYPTGLGADLELLRGKAQQLPPYNLEHLGVKASESAVSDHISDGQSASLYLGEETFSPKVIKELRLVKNPAGTITLRRAFWNTIDVKEIPEAIVYADLLNSDDARLWDVAQIIKAIILKRARGDWLGDQDG | not soluble
2 | MTTQIELGDITVDVVLKDIKNIHLSVYPPNGRVKISAPLRMDIDTIRVFAISRLGWIKQQRKKFQEQERETPREYLDLESHYVWGKRYLLKVIEVNEAPSVELKHSKMILRVRPGTDDKKRQSIIDAWYREQLKKAIPPLIARWEPLLGVKVERFFVQRMRTKWGSCNHKARNIRLNTELAKKPEECLEYTIVHEMAHILEPTHNSHFITLMDQFMPKWQFCRDRLNQLPVRHEDWIYLEHHHHHH | soluble
3 | MTTRQIKIVPKLIAIFTGKAAVRAAWGGRGSGKTRSFALMAALKGYQFGMGGISGTILCARQFQNSLAESSLEEIKRAIEGHDFLKDYYKVGESSIKSIDGRIAFQFSGLDRNIASIKSMGRILLCWVDEAEPVTETAWQTLIPTLREEGEGWRAELWVTWNPLRDNAPVERRFRFSNNEAIKRVEINWSDNPKFPKILNEARLDDLKNRPETYKHIWEGAYLTAVQGAYYQKEMLAAEQEGRIGRVARDPLMQMRAFWDIGGTGAKADATAIWIAQFVGREIRVLDYYEAQGQPLSEHIGWLRRNGYEKALMVLPHDGATRDRVHNVSFESALNDAGFETQVIPHQGAGAVKMRIEAVRRILPSVWFHEETTVAGRKALNWYHEKWDEKRGIGLGAEHDWSSHGADAFGLMCIVYEAPRIKPQQERYRAIEREAASWMAF | not soluble
4 | MTTRVLYVRHAHAHGRQTWGGDDNKRPLDKKGRRQAEMLVPMLLPFKPTAIYSAVPDRCQATALPLADELGLDVSVNRLFGDDAWETDPEACKKRFTDVVAQGGVPMIVGQGDIIPEMIKWFSENGTLPIDEKIKAKKGSVWVLSFHDGVFTGADYLEHHHHHH | soluble
5 | MTTTLFSSRIIQSALDFDVYKVNMMSAVAALYPDAMVSYKFIVRSEEDLSELLPEVKAEVLKLQDVRFTEDEIAYMKRVAPYLKPEFVEALRHFRFNPQSDVSFHNKTMSDGSSQLRITINGLWKETILYETIIMSIVSEVRSRQRWSDIPFEQFQTVLEDKVRYLKAELERRNITNFKFADMSTRRRFSFQAQRTMLEYLSKELPQCLTGTSNYHLARELDLTPIGTVAHEWFMGHQALVNVRDSQKIALQRWQKMFNGALGIALTDTIGIDAFLKDFDEELSHAYVGVRHDSGCPFTWGEKMIAHYESLGIDPMTKTLVFTDGLNFEQALDICEHFQGRVQVSFGIGTSLANDMGNYVNDQGEAYQPLSIVIKMVTCNGSPVAKISDEPEKAMCEDIFFLMNLKRRFEQPLDLNECRKLIDRLESEGQNYLIDALEHHHHHH | soluble
6 | MTTTTLTVPFRFDVVGSLLRPASLKKAHEQLAAGTITRDQELEIQHTEIKRVVAEQVKLGLKAVTDGEFSRSWWHLDFLWGLTGVGKYDYHQSYKFKGDHTRTDNAELIGKVAYNPDHPFFAAFEYLQSIVPAGVLAKQTIPSPTMLFRDNRSDNWTKFYDSWDAYLNDLAQAYHDTIQHFYDLGCRYIQLDDTTWAFLISKLNDPEADHAAYTKWATDAVTVINAALADLPSDLTVTTHICRGNFKSTYLFSGSYDVVAPYLGQLNYDGLFLEYDNERAGGFEALDQIWNHDDHKRIVLGLVTSKFPELEKTTVIKERVQAATTKVPLRNLALSTQCGFASTEEGNQLTEAQQWAKLALVIGTAKEVWSEALEHHHHHH | not soluble
7 | MTVAKAIFIKCGNLGTSMMMDMLLDERADREDVEFRVVGTSVKMDPECVEAAVEMALDIAEDFEPDFIVYGGPNPAAPGPSKAREMLADSEYPAVIIGDAPGLKVKDEMEEQGLGYILVKPDAMLGARREFLDPVEMAIYNADLMKVLAATGVFRVVQEAFDELIEKAKEDEISENDLPKLVIDRNTLLEREEFENPYAMVKAMAALEIAENVADVSVEGCFVEQDKERYVPIVASAHEMMRKAAELADEARELEKSNDAVLRTPHAPDGKVLSKRKFMEDPE | soluble
8 | MTVERIAEQPLDSELGHFNLITYRDSVEGDVHLALTLGKVCAEEPTLVRVHNMDPLRDLLQVNQPGRWSLRAAMTKVAEAGSGVVLLLGHQIGGDDLLAHVREIASAPAPAPKATTTYSTVGAGSQILRDLGVRKMRLLSAPMRFNAISGFDLEVVEYLPA | soluble
9 | MTVFVDHKIEYMSLEDDAELLKTMAHPMRLKIVNELYKHKALNVTQIIQILKLPQSTVSQHLCKMRGKVLKRNRQGLEIYYSINNPKVEGIIKLLNPIQ | soluble
10 | MTVIQTHGLTKRYGRVVAVEDLNLSVREGEVYGLLGPNGSGKTTTILMLLGLTEPTSGEARVLGFDPMREPLKVKSRVGYLPDQVGFYGELSAWENLRYTTRLLGLPDKEAEARIEEVLKRMGLWEVRDRKVAAFSRGMRQRLGLAEVLLKRPKVAILDEPTLGLDPEAAREFLDLIKGLKAEGITVLLSSHLLHQVQEVCDRVGLFHKGRLALEGTVAELAHRVLGGQYEILLEGAPGLEGALEAVEGVSRVEAEGGRYRVLATRDLRPELARLVVERGPLYALSLRQPSLDEIYAHYFKEVAHAA | soluble
11 | MTVQTSKNPQVDIAEDNAFFPSEYSLSQYTSPVSDLDGVDYPKPYRGKHKILVIAADERYLPTDNGKLFSTGNHPIETLLPLYHLHAAGFEFEVATISGLMTKFEYWAMPHKDEKVMPFFEQHKSLFRNPKKLADVVASLNADSEYAAIFVPGGHGALIGLPESQDVAAALQWAIKNDRFVISLCHGPAAFLALRHGDNPLNGYSICAFPDAADKQTPEIGYMPGHLTWYFGEELKKMGMNIINDDITGRVHKDRKLLTGDSPFAANALGKLAAQEMLAAYAGLEHHHHHH | soluble
12 | MTVVLTLLLLLVLVGCAKPKVEQTVKLGGAVKTIGDLVVLSGNSNLPKGAVVQIVMKEIEGGKQVLEEKVKVGGDGSYSWSAKRPERAKEYELDVMFLPELQPKHVKEKYGEKGELIKKDSSGRVEYQTDGQTYVGIKMYDRILKIGDGMGGQQSMLAETLPPPPPSY | not soluble
13 | MTWLDEKGRFAIYEAPQNCPYLGTIGTCYEFGSLPVILMFPELEKLFLKLLISYVRNDGYVPHDLGFHSLDSPIDGTTSPPKWKDMNPSLILLVYRYFKFTNDIDFLKEVYPTIVKVMDWELRQCRDGLPFMEGEMDNAFDATIIKGHDSYTSSLFIASLIAMREIAKLVGDSNYVGFINEKLNVAREAFRKMFNGKYFKAWDGVDKASFLAQLYGEWFTTLLELENIVDENMIKSALESIIRLNGNASPYCVPNLVDENGKIVNLSVQTYSSWPRLVFAICWLAYKKGVGDLSFCKKEWDNLVRNGMVWDQPSRINCYTGKPEINYLDHYVGSPSLWSFLFLEHHHHHH | not soluble
14 | MTYEIVIAGFGGQGVLSMGKILAYSGLMEDKEVSWMPSYGPEQRGGTSNVTVIVSDEQVSSPVLNEYDIVIVLNQPSLDKFEARVKKGGILVYDPDSIVLKNKRDDIQIYEVDATQESLRMGNQKAFNMIVLGGVLKVAPMVKIESVIKGLKKTLPERHHKLIPMNEQAIQRGMEIIKQIH | not soluble
15 | MTYKYNCCDDGSGTTVGSVVRFDNVTLLIDPGWNPSKVSYEQCIKYWEKVIPEIDVIILSQPTIECLGAHSLLYYNFTSHFISRIQVYATLPVINLGRVSTIDSYASAGVIGPYDTNKLDLEDIEISFDHIVPLKYSQLVDLRSRYDGLTLLAYNAGVCPGGSIWCISTYSEKLVYAKRWNHTRDNILNAASILDATGKPLSTLMRPSAIITTLDRFGSSQPFKKRSKIFKDTLKKGLSSDGSVIIPVDMSGKFLDLFTQVHELLFESTKINAHTQVPVLILSYARGRTLTYAKSMLEWLSPSLLKTWENRNNTSPFEIGSRIKIIAPNELSKYPGSKICFVSEVGALINEVIIKVGNSEKTTLILTKPSFECASSLDKILEIVEQDERNWKTFPEDGKSFLCDNYISIDTIKEEPLSKEETEAFKVQLKEKKRDRNKKILLVKRESKKLANGNAIIDDTNGERAMRNQDILVENVNGVPPIDHIMGGDEDDDEEEENDNLLNLLKDNSEKSAAKKNTEVPVDIIIQPSAASKHKMFPFNPAKIKKDDYGTVVDFTMFLPDDSDNVNQNSRKRPLKDGAKTTSPVNEEDNKNEEEDGYNMSDPISKRSKHRASRYSGFSGTGEAENFDNLDYLKIDKTLSKRTISTVNVQLKCSVVILNLQSLVDQRSASIIWPSLKSRKIVLSAPKQIQNEEITAKLIKKNIEVVNMPLNKIVEFS | soluble
16 | MTYLAVVLNGPKAKNGRKVFDSFLEQNRQMFWNRELTSACESITYMGFMRPGTLFVSGPASQLTVLKDAWARRILKPAMGYTITSLGDLGAIQQVEQMHFVPLGDVICDAVAQLNRQGLAATEQAIRQYVARHCPHVAPPGIEMVRQTITSLLSTGFVYKMADHYFVSVPTNSPMRPPAKAATKTTKTTVECQTGASMMCPQQTSTSSDEHVIEPAKKDHKKCQNSNRRSIFARLFSRGMKPQTIMPSASPIHVGGPPTPPPAAMLPTKNKYPTYHHDLNEECQRKARRRNHPRRGETQKLLSSSSECLKYYPVDMPETRPTRRRARMASPLRSSTPNNSDSAYSISPPHTDSNEEAGSISDSEINHTYININKFRRQNFDSTQFEDLTGATATTSEEPEILGRHIRGVLISNL | not soluble
17 | MTYVDGFVLPVPEGKIDAYRQMAESAGKIWMEHGALQYKECVLEDAKPEMPEDAPETCKITPFGKLAGTKDGETVIFAFIVYKSREHRDEVNKKVMADPRMQEACDENNMPFDPSRMAYGGFKALVDL | not soluble
18 | MVALPTINQLVRKGREKVRKKSKVPALKGAPFRRGVCTVVRTVTPKKPNSALRKVAKVRLTSGYEVTAYIPGEGHNLQEHSVVLIRGGRVKDLPGVRYHIVRGVYDAAGVKDRKKSRSKYGTKKPKEAAKTAAKK | soluble
19 | MVALRGKEIDAFLARPDAGRPIVLLYGPDAGLVRERADALIASAVDDPNDPFSLVRLDGDELSAEPSRLVDEAMTVPLFGGQRAIRVRAGSRSFASGIDTLAEMGVKDCRIVIEAGELRPESPLRKACERAKTAVAIGCYPDTERDLAKLMDDELRIANLRIAQDARAALMSFLGGDRQASRNELRKLTLYAHGKGEITLEDVMAVVADASELKLDPIVDGAFAGRPDIVETEFAKAMIAGTYPGVIISAAQRQAAWLHKSALAIADGQPASAVLDGGFPRLHFSRKPAVETALRNFSVARLAAIIEQLATAALDTRKQSTLAAAIAQRTLMAIAANAKRRGLEHHHHHH | not soluble
20 | MVAWSIVDYGSGDEVPGADAALVLGAAAWGNKPSPVFRERINHAVKLYQSGKVRWIVFTGGTPEPGYPAEADVGREFAARQGVPMTAMLVENQSRTTWQNLSNARDLGNQFGIRSYLLVSDPLHMRRAVLMAGDLGLRAYPAPTQSSRFRTLASWSRFLARETWLYVGYRVFRQLSLEHHHHHH | not soluble
21 | MVCGKKRVGEELRCKSCGSPFEIRTGFHYRENIEDNFPYIKNMISLGESETPIFHGDDFDLKLDYMLPTFSYKDRGSRILISHIADIRDSYGITRISEDSSGNAGASIAAYGSAAGLAVDIYVPETVAGRKFSQIQAYGANVIKVKGSREDVQSAAERSESFYASHVLRPEFRDGIRTLAYEIYRQYDRMPRNIYIPVSAGTLLLGLYSGLRHLMESGEIAEMPAIVAVQTEAVSPLCAKINGLNYDPDNKLSSIADALVSRKPVLLQKMYQVISEYGRCMTVSDDEIIEARNRLAKKGFLVEYSSATVYAAFRKKPQENSLLVLTGSGLKNDS | not soluble
22 | MVCISRFLPVKGVQNINGKELKSIVGKKGKYFIDVRTVGEYRGNHMKGFQNIPLNDLASKANQLDKNKEVIVICQSGMRSKQAAKVLKKLGFQQVINVSGGMNSL | not soluble
